Among the data in publication PMC3932107 are Kd and stoichiometry N values, retold here.

For assay [1], the target named is CPM-labeled γ-synuclein (human) (UniProt O76070). As to the kind of experiment: other fluorescence titration.
Assay [2] addresses Alexa488-labeled γ-synuclein (human) (UniProt O76070). The experiment in a line: photon counting histogram.

pKd: −log10 of the molar value.

As usually defined, the pKd is the negative decadic logarithm of the Kd, by convention in mol/L. Low values mean a large Kd, high ones a small Kd. In the case of “γ-synuclein, purified from E. coli, unlabelled (from UniProt O76070 1-127) (natural protein)”, the negative logarithm of the Kd (pKd) in assay [1] is 8.30.

A word on the stoichiometry N: it is the number of molecules, sites or subunits per partner or assembly. For “Alexa488-labeled γ-synuclein (from UniProt O76070 1-127) (natural protein)”, in assay [2], the stoichiometry N was determined as 20.
